Measured values published in US20230190900 (published 2023).

What was measured:
[1] = biological target: T1, human FcγRIIIb (NA1) CD16B (human, UniProt O75015); experiment: SPR
T1 chain: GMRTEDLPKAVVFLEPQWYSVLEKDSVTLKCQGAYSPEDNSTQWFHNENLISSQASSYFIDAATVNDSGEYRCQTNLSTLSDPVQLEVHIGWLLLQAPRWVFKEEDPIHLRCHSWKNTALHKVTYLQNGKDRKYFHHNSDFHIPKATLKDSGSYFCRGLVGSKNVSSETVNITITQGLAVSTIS

human FcγRIIc (CD32C) = biological target: T2, human FcγRIIc (CD32C) (human, UniProt P31995); experiment: SPR
T2 chain: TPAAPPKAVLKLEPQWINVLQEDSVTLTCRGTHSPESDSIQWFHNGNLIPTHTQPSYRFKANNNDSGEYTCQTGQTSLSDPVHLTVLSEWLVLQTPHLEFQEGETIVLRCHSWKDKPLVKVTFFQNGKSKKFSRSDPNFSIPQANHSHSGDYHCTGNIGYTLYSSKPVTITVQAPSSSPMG

murine FcγRIIb = biological target: T3, murine FcγRIIb (mouse, UniProt P08101); experiment: SPR
T3 chain: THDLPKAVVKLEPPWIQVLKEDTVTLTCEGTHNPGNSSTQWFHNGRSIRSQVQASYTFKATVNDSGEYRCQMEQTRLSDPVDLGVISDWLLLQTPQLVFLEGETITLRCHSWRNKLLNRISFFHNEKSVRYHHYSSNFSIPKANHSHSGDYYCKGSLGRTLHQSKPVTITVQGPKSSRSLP

[2] = biological target: T4, cynomolgus FcγRIIa (CD32A) (cynomolgus); experiment: SPR
T4 chain: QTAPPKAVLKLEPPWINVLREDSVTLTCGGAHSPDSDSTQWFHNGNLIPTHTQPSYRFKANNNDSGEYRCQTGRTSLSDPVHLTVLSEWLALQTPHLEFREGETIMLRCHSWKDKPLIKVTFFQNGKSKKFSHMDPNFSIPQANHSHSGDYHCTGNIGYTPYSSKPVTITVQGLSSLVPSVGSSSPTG

human FcγRIIb (CD32B) = biological target: T5, human FcγRIIb (CD32B) (human, UniProt P31994); experiment: SPR
T5 chain: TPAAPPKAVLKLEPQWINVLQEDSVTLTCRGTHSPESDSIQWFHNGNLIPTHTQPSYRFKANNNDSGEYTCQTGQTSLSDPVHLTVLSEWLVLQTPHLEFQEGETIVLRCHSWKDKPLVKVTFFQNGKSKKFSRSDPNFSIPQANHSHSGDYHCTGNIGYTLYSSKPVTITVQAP

murine FcγRI = biological target: T6, murine FcγRI (mouse, UniProt P26151); experiment: SPR
T6 chain: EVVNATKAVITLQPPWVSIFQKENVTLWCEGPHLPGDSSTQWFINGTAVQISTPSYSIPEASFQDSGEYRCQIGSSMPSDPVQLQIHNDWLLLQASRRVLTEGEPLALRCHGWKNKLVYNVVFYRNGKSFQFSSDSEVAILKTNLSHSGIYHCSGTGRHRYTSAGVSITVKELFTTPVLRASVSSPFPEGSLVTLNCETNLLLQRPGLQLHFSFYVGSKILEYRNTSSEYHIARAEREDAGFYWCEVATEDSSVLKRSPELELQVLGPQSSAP

human FcγRIIa (CD32A) = biological target: T7, human FcγRIIa (CD32A) (human, UniProt P12318); experiment: SPR
T7 chain: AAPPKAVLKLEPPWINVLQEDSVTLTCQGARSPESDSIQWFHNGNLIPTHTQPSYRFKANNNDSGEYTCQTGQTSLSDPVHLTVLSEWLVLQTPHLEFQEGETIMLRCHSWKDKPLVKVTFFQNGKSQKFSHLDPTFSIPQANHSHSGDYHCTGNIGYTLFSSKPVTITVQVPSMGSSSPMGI

murine FcγRIV (CD16-2) = biological target: T8, murine FcγRIV (CD16-2) (mouse, UniProt A0A0B4J1G0); experiment: SPR
T8 chain: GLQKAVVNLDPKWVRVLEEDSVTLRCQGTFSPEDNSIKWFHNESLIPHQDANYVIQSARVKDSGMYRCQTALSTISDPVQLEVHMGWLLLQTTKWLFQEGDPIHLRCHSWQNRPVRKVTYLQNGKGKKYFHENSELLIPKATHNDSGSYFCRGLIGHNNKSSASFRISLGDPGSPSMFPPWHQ

human FcγRI (CD64) = biological target: T9, human FcγRI (CD64) (human, UniProt P12314); experiment: SPR
T9 chain: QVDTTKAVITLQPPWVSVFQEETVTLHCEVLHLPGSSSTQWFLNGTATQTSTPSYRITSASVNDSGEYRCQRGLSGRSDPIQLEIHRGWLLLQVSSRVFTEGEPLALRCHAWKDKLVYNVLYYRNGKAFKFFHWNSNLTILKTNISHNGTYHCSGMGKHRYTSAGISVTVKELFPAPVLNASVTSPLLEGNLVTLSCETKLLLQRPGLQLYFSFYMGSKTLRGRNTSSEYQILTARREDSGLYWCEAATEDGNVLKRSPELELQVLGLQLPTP

murine FcγRIII = biological target: T10, murine FcγRIII (mouse, UniProt P08508); experiment: SPR
T10 chain: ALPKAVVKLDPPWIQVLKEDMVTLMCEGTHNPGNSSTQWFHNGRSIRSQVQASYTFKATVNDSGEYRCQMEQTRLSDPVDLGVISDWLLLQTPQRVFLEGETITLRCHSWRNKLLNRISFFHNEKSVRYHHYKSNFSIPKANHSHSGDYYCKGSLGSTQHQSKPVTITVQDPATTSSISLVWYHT

human FcRn = human FcRn (human, UniProt P55899); experiment: SPR, pH 6.0
murine FcRn = biological target: T11, murine FcRn (mouse, UniProt Q61559); experiment: SPR, pH 6.0
T11 chain 1: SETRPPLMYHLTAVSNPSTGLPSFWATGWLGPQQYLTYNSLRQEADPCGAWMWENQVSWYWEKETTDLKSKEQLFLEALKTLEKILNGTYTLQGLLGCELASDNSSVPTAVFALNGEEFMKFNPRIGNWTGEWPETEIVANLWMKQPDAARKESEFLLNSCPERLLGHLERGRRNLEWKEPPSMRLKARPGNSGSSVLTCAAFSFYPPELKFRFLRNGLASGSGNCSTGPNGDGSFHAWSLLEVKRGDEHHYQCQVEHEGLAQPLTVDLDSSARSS
T11 chain 2: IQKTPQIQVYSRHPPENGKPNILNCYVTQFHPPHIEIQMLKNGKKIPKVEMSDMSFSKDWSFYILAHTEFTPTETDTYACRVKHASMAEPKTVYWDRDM

cynomolgus FcRn = biological target: T12, cynomolgus FcRn (cynomolgus, UniProt Q8SPV9); experiment: SPR, pH 6.0
T12 chain 1: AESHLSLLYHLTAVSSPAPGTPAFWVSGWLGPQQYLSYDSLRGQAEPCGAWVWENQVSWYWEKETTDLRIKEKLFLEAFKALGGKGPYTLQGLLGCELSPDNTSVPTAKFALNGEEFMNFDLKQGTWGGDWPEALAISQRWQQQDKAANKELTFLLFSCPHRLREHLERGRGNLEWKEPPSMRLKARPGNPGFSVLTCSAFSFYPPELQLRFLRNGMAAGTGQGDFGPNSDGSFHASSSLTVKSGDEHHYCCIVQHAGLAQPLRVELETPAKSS
T12 chain 2: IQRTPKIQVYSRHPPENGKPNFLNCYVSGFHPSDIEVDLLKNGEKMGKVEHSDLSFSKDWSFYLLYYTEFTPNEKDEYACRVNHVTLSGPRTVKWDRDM

EGFRvIII (CHO cells) = EGFRvIII (CHO cells) (human); experiment: FACS, CHO cells 37C

B1: EGFR/CD16A tandem diabody (full) (antibody)
chain 1: QVQLQESGPGLVKPSETLSLTCTVSGGSVSSGSYYWSWIRQPPGKGLEWIGYIYYSGSTNYNPSLKSRVTISVDTSKNQFSLKLSSVTAADTAVYYCARNPISIPAFDIWGQGTMVTVSSGGSGGSGGSSYVLTQPSSVSVAPGQTATISCGGHNIGSKNVHWYQQRPGQSPVLVIYQDNKRPSGIPERFSGSNSGNTATLTISGTQAMDEADYYCQVWDNYSVLFGGGTKLTVLGGSGGSQVQLVQSGAEVKKPGESLKVSCKASGYTFTSYYMHWVRQAPGQGLEWMGIINPSGGSTSYAQKFQGRVTMTRDTSTSTVYMELSSLRSEDTAVYYCARGSAYYYDFADYWGQGTLVTVSSGGSGGSGGSQPVLTQPPSVSVAPGKTARITCGGNNIGSKSVHWYQQKPGQAPVLVIYYDSDRPSGIPERFSGSNSGNTATLTISRVEAGDEADYYCQVWDTSSDHVLFGGGTKLTVLAAAGSHHHHHH
chain 2: QVQLQESGPGLVKPSETLSLTCTVSGGSVSSGSYYWSWIRQPPGKGLEWIGYIYYSGSTNYNPSLKSRVTISVDTSKNQFSLKLSSVTAADTAVYYCARNPISIPAFDIWGQGTMVTVSSGGSGGSGGSSYVLTQPSSVSVAPGQTATISCGGHNIGSKNVHWYQQRPGQSPVLVIYQDNKRPSGIPERFSGSNSGNTATLTISGTQAMDEADYYCQVWDNYSVLFGGGTKLTVLGGSGGSQVQLVQSGAEVKKPGESLKVSCKASGYTFTSYYMHWVRQAPGQGLEWMGIINPSGGSTSYAQKFQGRVTMTRDTSTSTVYMELSSLRSEDTAVYYCARGSAYYYDFADYWGQGTLVTVSSGGSGGSGGSQPVLTQPPSVSVAPGKTARITCGGNNIGSKSVHWYQQKPGQAPVLVIYYDSDRPSGIPERFSGSNSGNTATLTISRVEAGDEADYYCQVWDTSSDHVLFGGGTKLTVLAAAGSHHHHHH
no binding: binding result [1] | binding result (human FcγRIIc (CD32C)) | binding result (murine FcγRIIb) | binding result [2] | binding result (human FcγRIIb (CD32B)) | binding result (murine FcγRI) | binding result (human FcγRIIa (CD32A)) | binding result (murine FcγRIV (CD16-2)) | binding result (human FcγRI (CD64)) | binding result (murine FcγRIII) | binding result (human FcRn) | binding result (murine FcRn) | binding result (cynomolgus FcRn)

B2: Tandem diabody EGFR arm (antibody, V domains shown)
VH: QVQLQESGPGLVKPSETLSLTCTVSGGSVSSGSYYWSWIRQPPGKGLEWIGYIYYSGSTNYNPSLKSRVTISVDTSKNQFSLKLSSVTAADTAVYYCARNPISIPAFDIWGQGTMVTVSS
VL: QPVLTQPPSVSVAPGKTARITCGGNNIGSKSVHWYQQKPGQAPVLVIYYDSDRPSGIPERFSGSNSGNTATLTISRVEAGDEADYYCQVWDTSSDHVLFGGGTKLTVL
500 pM: Kd (EGFRvIII (CHO cells))
